The data set concerns the molecule itself. As to the kind of experiment: negative-stain transmission electron microscopy.

B1: T. maritima encapsulin with His6 insert with Strep-tag (TmEnc-STII) (natural protein, Thermotoga maritima)
chain: MEFLKRSFAPLTEKQWQEIDNRAREIFKTQLYGRKFVDVEGPGGGGGGHHHHHHGGGGGYGWEYAAHPLGEVEVLSDENEVVKWGLRKSLPLIELRATFTLDLWELDNLERGKPNVDLSSLEETVRKVAEFEDEVIFRGCEKSGVKGLLSFEERKIECGSTPKDLLEAIVRALSIFSKDGIEGPYTLVINTDRWINFLKEEAGHYPLEKRVEECLRGGKIITTPRIEDALVVSERGGDFKLILGQDLSIGYEDREKDAVRLFITETFTFQVVNPEALILLKF
Turning to B1, the binding result is on record as “binds”.

Values taken from PMC8435816 (Synthetic and Systems Biotechnology, 2021).
